± gives the uncertainty stated by the source.

B1: Tripartite motif-containing protein 44, residues 174 to 218; numbered along this chain, Q96DX7 (parent)
chain: VAKRKCPDHGLDLSTYCQEDRQLICVLCPVIGAHQGHQLSTLDEA

The variants in the series derive from B1. The experiment in a line: abundance fitness (aPCA) (normalised: wild type 0, dead -1); higher = more abundant; growth selection in yeast, the domain comes from the species named. As to conditions: Homo sapiens.
With VAKRKCPDHGLDLSLYCQEDRQLICVLCPVIGAHQGHQLSTLDEA [T15L], the abundance fitness is -0.196 ± 0.03.
The value for VAKRKCPDHGLDLSGYCQEDRQLICVLCPVIGAHQGHQLSTLDEA [T15G] was -0.101 ± 0.025; that for VAKRKCPDHGLDLSRYCQEDRQLICVLCPVIGAHQGHQLSTLDEA [T15R] was -0.054 ± 0.027; that for VAKRKCPDHGLDLSTYCQQDRQLICVLCPVIGAHQGHQLSTLDEA [E19Q] was -0.062 ± 0.031.
For VAKRKCPDHGLDLSTYCQADRQLICVLCPVIGAHQGHQLSTLDEA [E19A], the abundance fitness is -0.045 ± 0.027.
The value for VAKRKCPDHGLDLSTYCQNDRQLICVLCPVIGAHQGHQLSTLDEA [E19N] was -0.033 ± 0.04; that for VAKRKCPDHGLDLSTYCQRDRQLICVLCPVIGAHQGHQLSTLDEA [E19R] was -0.098 ± 0.027.
Regarding VAKRKCPDHGLDLSTYCQYDRQLICVLCPVIGAHQGHQLSTLDEA [E19Y], the abundance fitness is -0.082 ± 0.058.
The value for VAKRKCPDHGLDLSTYCQPDRQLICVLCPVIGAHQGHQLSTLDEA [E19P] was -0.198 ± 0.035.
The result for VAKRKCPDHGLDLSTYCQIDRQLICVLCPVIGAHQGHQLSTLDEA [E19I] reads -0.063 ± 0.065.
The result for VAKRKCPDHGLDLSTYCQTDRQLICVLCPVIGAHQGHQLSTLDEA [E19T] reads -0.01 ± 0.037; that for VAKRKCPDHGLDLSTYCQSDRQLICVLCPVIGAHQGHQLSTLDEA [E19S], -0.048 ± 0.028.
As to VAKRKCPDHGLDLSTYCQCDRQLICVLCPVIGAHQGHQLSTLDEA [E19C], the abundance fitness was -0.063 ± 0.034.
The value for VAKRKCPDHGLDLSTYCQDDRQLICVLCPVIGAHQGHQLSTLDEA [E19D] was 0.045 ± 0.039; that for VAKRKCPDHGLDLSTYCQVDRQLICVLCPVIGAHQGHQLSTLDEA [E19V] was -0.06 ± 0.027.
As for VAKRKCPDHGLDLSTYCQWDRQLICVLCPVIGAHQGHQLSTLDEA [E19W], the abundance fitness is -0.153 ± 0.028.
The result for VAKRKCPDHGLDLSTYCQLDRQLICVLCPVIGAHQGHQLSTLDEA [E19L] reads -0.081 ± 0.027.
For the variant VAKRKCPDHGLDLSTYCQHDRQLICVLCPVIGAHQGHQLSTLDEA [E19H], the abundance fitness was -0.032 ± 0.045.
The result for VAKRKCPDHGLDLSTYCQGDRQLICVLCPVIGAHQGHQLSTLDEA [E19G] reads -0.093 ± 0.025.
The result for VAKRKCPDHGLDLSTYCQMDRQLICVLCPVIGAHQGHQLSTLDEA [E19M] reads -0.108 ± 0.032; that for VAKRKCPDHGLDLSTYCQFDRQLICVLCPVIGAHQGHQLSTLDEA [E19F], -0.097 ± 0.05; that for VAKRKCPDHGLDLSTYCQEHRQLICVLCPVIGAHQGHQLSTLDEA [D20H], -0.141 ± 0.047.
The result for VAKRKCPDHGLDLSTYCQEQRQLICVLCPVIGAHQGHQLSTLDEA [D20Q] reads -0.377 ± 0.047; that for VAKRKCPDHGLDLSTYCQETRQLICVLCPVIGAHQGHQLSTLDEA [D20T], -0.217 ± 0.037; that for VAKRKCPDHGLDLSTYCQECRQLICVLCPVIGAHQGHQLSTLDEA [D20C], -0.045 ± 0.045.
For VAKRKCPDHGLDLSTYCQENRQLICVLCPVIGAHQGHQLSTLDEA [D20N], the abundance fitness was -0.419 ± 0.056.
For VAKRKCPDHGLDLSTYCQEKRQLICVLCPVIGAHQGHQLSTLDEA [D20K], the abundance fitness was -0.3 ± 0.036.
With VAKRKCPDHGLDLSTYCQEMRQLICVLCPVIGAHQGHQLSTLDEA [D20M], the abundance fitness was -0.685 ± 0.051.
The result for VAKRKCPDHGLDLSTYCQEGRQLICVLCPVIGAHQGHQLSTLDEA [D20G] reads -0.487 ± 0.026; that for VAKRKCPDHGLDLSTYCQEARQLICVLCPVIGAHQGHQLSTLDEA [D20A], -0.585 ± 0.034.
The result for VAKRKCPDHGLDLSTYCQERRQLICVLCPVIGAHQGHQLSTLDEA [D20R] reads -0.072 ± 0.026; that for VAKRKCPDHGLDLSTYCQELRQLICVLCPVIGAHQGHQLSTLDEA [D20L], -0.656 ± 0.038; that for VAKRKCPDHGLDLSTYCQEYRQLICVLCPVIGAHQGHQLSTLDEA [D20Y], -0.57 ± 0.1.
The result for VAKRKCPDHGLDLSTYCQESRQLICVLCPVIGAHQGHQLSTLDEA [D20S] reads -0.138 ± 0.032.
Turning to VAKRKCPDHGLDLSTYCQEERQLICVLCPVIGAHQGHQLSTLDEA [D20E], the abundance fitness was -0.033 ± 0.029.
The result for VAKRKCPDHGLDLSTYCQEFRQLICVLCPVIGAHQGHQLSTLDEA [D20F] reads -0.914 ± 0.14; that for VAKRKCPDHGLDLSTYCQEVRQLICVLCPVIGAHQGHQLSTLDEA [D20V], -0.642 ± 0.032.
The result for VAKRKCPDHGLDLSTYCQEPRQLICVLCPVIGAHQGHQLSTLDEA [D20P] reads -0.896 ± 0.079; that for VAKRKCPDHGLDLSTYCHEDRQLICVLCPVIGAHQGHQLSTLDEA [Q18H], 0.035 ± 0.072; that for VAKRKCPDHGLDLSTYCEEDRQLICVLCPVIGAHQGHQLSTLDEA [Q18E], 0.008 ± 0.03.
The value for VAKRKCPDHGLDLSTYCSEDRQLICVLCPVIGAHQGHQLSTLDEA [Q18S] was -0.015 ± 0.031.
Consider VAKRKCPDHGLDLSTYCDEDRQLICVLCPVIGAHQGHQLSTLDEA [Q18D], for which the abundance fitness came to 0.009 ± 0.039.
Regarding VAKRKCPDHGLDLSTYCPEDRQLICVLCPVIGAHQGHQLSTLDEA [Q18P], the abundance fitness is -0.038 ± 0.04.
The result for VAKRKCPDHGLDLSTYCREDRQLICVLCPVIGAHQGHQLSTLDEA [Q18R] reads -0.043 ± 0.026; that for VAKRKCPDHGLDLSTYCCEDRQLICVLCPVIGAHQGHQLSTLDEA [Q18C], -0.041 ± 0.037.
The result for VAKRKCPDHGLDLSTYCLEDRQLICVLCPVIGAHQGHQLSTLDEA [Q18L] reads -0.061 ± 0.029.
The value for VAKRKCPDHGLDLSTYCVEDRQLICVLCPVIGAHQGHQLSTLDEA [Q18V] was -0.086 ± 0.028; that for VAKRKCPDHGLDLSTYCMEDRQLICVLCPVIGAHQGHQLSTLDEA [Q18M] was -0.01 ± 0.041; that for VAKRKCPDHGLDLSTYCGEDRQLICVLCPVIGAHQGHQLSTLDEA [Q18G] was -0.111 ± 0.026.
Regarding VAKRKCPDHGLDLSTYCIEDRQLICVLCPVIGAHQGHQLSTLDEA [Q18I], the abundance fitness is -0.058 ± 0.1.
The value for VAKRKCPDHGLDLSTYCWEDRQLICVLCPVIGAHQGHQLSTLDEA [Q18W] was -0.189 ± 0.031.
The result for VAKRKCPDHGLDLSTYCTEDRQLICVLCPVIGAHQGHQLSTLDEA [Q18T] reads -0.06 ± 0.034.
As for VAKRKCPDHGLDLSTYCYEDRQLICVLCPVIGAHQGHQLSTLDEA [Q18Y], the abundance fitness amounted to 0.08 ± 0.066.
The value for VAKRKCPDHGLDLSTYCKEDRQLICVLCPVIGAHQGHQLSTLDEA [Q18K] was 0.037 ± 0.043; that for VAKRKCPDHGLDLSTYCNEDRQLICVLCPVIGAHQGHQLSTLDEA [Q18N] was -0.01 ± 0.06.
Consider VAKRKCPDHGLDLSTYCFEDRQLICVLCPVIGAHQGHQLSTLDEA [Q18F], for which the abundance fitness was -0.109 ± 0.048.
The result for VAKRKCPDHGLDLSTYCAEDRQLICVLCPVIGAHQGHQLSTLDEA [Q18A] reads -0.021 ± 0.026.

These data come from the Human Domainome abundance scans (Beltran et al. 2025).
